T1: human CD112R antigen protein huCD112R-His (Acro Biosysterm, PVG-H52H4) (human, UniProt Q6DKI7 41-171)
T1 construct: purchased; also called human antigen protein; not shown: His tag
T1 sequence (looked up): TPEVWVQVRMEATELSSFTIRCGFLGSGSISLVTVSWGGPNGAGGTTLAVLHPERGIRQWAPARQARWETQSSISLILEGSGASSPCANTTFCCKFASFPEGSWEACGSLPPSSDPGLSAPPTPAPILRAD

T2: monkey antigen protein (monkey CD112R, Uniprot ID: A0A2K5WVV8) (monkey, UniProt A0A2K5WVV8 41-171)
T2 sequence: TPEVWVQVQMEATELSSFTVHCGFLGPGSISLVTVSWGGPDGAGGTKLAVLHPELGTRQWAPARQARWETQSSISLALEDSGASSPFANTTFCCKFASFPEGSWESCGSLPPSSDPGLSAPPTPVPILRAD


Experiments:
[1] = molecular target: T1, human CD112R antigen protein …; experiment: ELISA, huCD112R-His coated on plate
[2] = molecular target: T2, monkey antigen protein (monkey CD112R, …); experiment: ELISA, monkey antigen protein (as Example 6.1)

Row | Binder | EC50 [1] [nM] | EC50 [2] [nM]
1 | C123 (antibody, human IgG1, kappa, V domains shown) VH: EVQLVESGGGLVKPGGSLKLSCAASGFTFSNFAMSWVRQTPAMRLESVATIVNGGINTYYPDTVKGRFTVSRDNAKNTLYLQMSSLRSEDTAIYYCARHDDFLYYAMDYWGQGTSVTVSS VL: QIVLTQSPAIMSASPGEKVTMTCSASSSVSYMFWYQQKPGSSPRLLIYDTSNLASGVPVRFSGSGSGTSYSLTISRLEAEDAATYYCQQWTSYPLTFGAGTKLDLKR | 0.035 | 0.056
2 | C143 (antibody, human IgG1, kappa, V domains shown) VH: EVQLVESGGGLVKPGGSLKLSCAASGFTFSNFAMSWVRQTPAMRLESVATIVNGGINTYYPDTVKGRFTVSRDNAKNTLYLQMSSLRSEDTAIYYCARHDDFLYYAMDYWGQGTSVTVSS VL: QIVLTQSPAIMSASPGEKVTMTCSASSSVNYMFWYQQKPGSSPRLLIYDTSNLASGVPVRFSGSGSGTSYSLTISRLEAEDAATYYCQQWTSYPLTFGAGTKLDLKR | 0.025 | 0.04
3 | C43 (antibody, human IgG1, kappa, V domains shown) VH: QVQLQQPGAELVRPGTSVKLSCKASGNTFTTYWMHWVKQRPGQGHEWIGVIDASDSNTKYNQKFKGKATLTVDTSSSTAYMQLSSLTSEDSAVYYCARYYSGSSYGLDYWGQGTTLTVSS VL: DIQMTQTASSLSASLGDRVTISCRASQDISNYLNWYQQKPDGTVKLLIYYTSRLHSGVPSRFSGSGSGTDYSLTITNLEQEDIASYFCQQGNMFPPTFGGGTKLEIKR | 0.051 | 0.044
4 | C25 (antibody, human IgG1, kappa, V domains shown) VH: QVQLQQPGAELVRPGTSVKLSCKASGNTFTSYWMHWVKQRPGQGHEWIGVIDASDSKTKYNQKFKGKATLTVDTSSSTAYMQLSSLTSEDSAVYYCARYYSGSSYGLDYWGQGTTLTVSS VL: DIQMTQTASSLSASLGDRVTISCRASQDISNYLNWYQQKPDGTVKLLIYYTSRLHSGVPSRFSGSGSGTDYSLTISNLEQEDIATYFCQQGNTLPPTFGGGTKLEIKR | 0.052 | 3.8
5 | C69 (antibody, human IgG1, kappa, V domains shown) VH: EVQLQQSGPVLVKPGASVKMSCKASGYRLTDYYMHWVKQSHGKSLEWIGIINPYNGGTSYNQKFKGKATLTVDKSSSTAYMELNSLTSDDSAVYYCARDSSNVGNDMDYWGQGTSVSVSS VL: DIQMTQTTSSLSASLGDRVTISCRASQDISNYLNWYLQKPDGTVKLLIYYSSRLHSGVPSRFSGSGSGTDYSLTINNLEQEDIATYFCQQGNTLPRTFGGGTKLEIRR | 0.023 | 0.051
6 | C110 (antibody, human IgG1, kappa, V domains shown) VH: EVQLQQSGAELAKPGASVKLSCTVSGFNIKDTYIHWVKQRPEQGLEWIGGIDPAIGNTVSASKFQDKATITADTSSSTAYMQLSSLTSGDTAVYYCARERVHSNTLYYAMDYWGQGTSVTVSS VL: DIVLTQSPASLAVSLGQRATISCRASKSVSISGYSYMHWYQQKPGQPPKLLIYLASNLESGVPARFSGSGSGTDFTLNIHPVEEEDAATYYCQHSRELPPTFGGGTKLEIKR | 0.032 | 0.034
7 | C6 (antibody, human IgG1, kappa, V domains shown) VH: QVHLHQSGPELVKPGASVKISCKASGYTFTAYYINWVKQRPGQGLEWIGWIFPGSDSTYYNEKFKGRATLTVDKSSSTAYMLLNSLTSEDSAVYFCARDGELRGPFDYWGQGTTLTVSS VL: DIQMTQSPSSLSASLGGKVTITCKASQDINKYIAWYQHKPGKSPRLLIHYTSTLQAGIPSRFSGSGSGRDYSFSISNLEPEDSATYYCLQYDNLLTFGGGTKLEIKR | 0.055 | 0.058
8 | C116 (antibody, human IgG1, kappa, V domains shown) VH: EVKLVESGGGLVQPGGSLKLSCAVSGFTFSSYTMSWVRQTPEKRLELVAKISNSGGSTNYPDTVKGRFTLSRDNVKNTLYLQMSSLKSEDTAIYYCTRYSWDVYAMDYWGQGTSVTVSS VL: DIQMTQSPASLSASVGETVIITCRASENIYSYLAWYQQKQGKSPHLLVYNAETLVEGVPSRFSGSGSATQFSLKINSLQPEDFGTYYCQHHYGDPTFGGGTKLEIKR | 0.025 | 0.061
9 | C117 (antibody, human IgG1, kappa, V domains shown) VH: QVQLQQSGAELARPGASVKMSCKASGYTFTDYWMQWVKQRPGQGLEWIGAIFPGNGETRDTQKFKGRATLTADRSSSTAYIQLSSLTSEDSAVYYCATFNNYLDYWGQGTTLTVAS VL: QIVLTQSPAIMSASPGEKVTMTCSASSSVSYMHWYQQKSGASPKRWIYDTSKLTSGVPARFSGSGSGTSYSLTISNMEAEDAATYYCQQWISNPYTFGGGTKLEIKR | 0.041 | 0.045
10 | C44 (antibody, human IgG1, kappa, V domains shown) VH: QVQLQQSGPELMKPGASLKISCKASGYTFTDSYINWVKQRPGQGLEWIGWIFPGSGSTYYNEKFKGTATLTVDKSSSTAYMLLSSLTSEDSAAYFCARDGGLRGPFDYWGQGTTLTVSS VL: DIQMTQSPSSLSASLGGKVTITCKASQDINKYIAWYQHKPGKGPRLLIHYTSTLQSGIPSRFSGSGSGRDYFFSISNLESEDIATYYCLQYDHLLTFGGGTKLEIKR | 0.053 | 0.076
11 | C118 (antibody, human IgG1, kappa, V domains shown) VH: QVQLQQPGAELVKPGTSVKLSCKAAGYIFTSSWMHWVKQRPGQGLEWIGEINPSDGRTNYNEKFKNKATLTVDHSSSTAYMQLSSLTSEDSAVYYCASNADRAYYTMDYWGQGTSVTVSS VL: not shown | 0.029 | 0.057
12 | C112 (antibody, human IgG1, kappa, V domains shown) VH: QVQLQQPGAELVKPGASVKLSCKASGYTFTSSWMHWVKQRPGQGLEWIGEINPSDGRTNYNEKFKSKATLTVDHSSSTAYMQLSSLTSEDSAVYYCASNADRAYYTMDYWGQGTSVTVSS VL: not shown | 0.028 | 0.055
13 | C45 (antibody, human IgG1, kappa, V domains shown) VH: QVHLQQSGPDLVKPGVSVKISCKASGYTFTDYYINWVKQRPGQGLEWIGWIFPGSGTTYYNEKFKGKATLTVDKSSSTAYMLLSSLTSEDSAVYFCARDGGLRGPFDYWGQGTTLTVSS VL: DIQMTQSPSSLSASLGGKVTITCKANQDINKYIAWYQYKPGKGPRLLIHYTSTLQPDIPSRFSGSGSGRDFSFSISNLEPEDIATYYCLQYDYLYTFGGGTKLEIKR | 0.059 | 0.114
14 | C119 (antibody, human IgG1, kappa, V domains shown) VH: EVKLVESGGGLVQPGGSLKLSCVASGFTFNTYIMSWVRQTPEKRLELVADISNSGGNTYYSDTVKGRFTISRDNAKNTLYLQMSSLKSEDTAMYYCARPDNWDPFVYWGQGTLVTVSA VL: DIQMTQSSSSFSVSLGDRVTITCKASEDIYARLAWYQQKPGNAPRLLISGATSLETGVPSRFSGSGSGKNYTLSITSLQTEDVGTYYCQQHWSTPWTFGGGTNLEIKR | 0.025 | 0.08
15 | C51 (antibody, human IgG1, kappa, V domains shown) VH: QVQLQQSGAELVRPGASVTLSCKASGYTFTDYEMHWVKQTPVHGLEWIGAIDPETGGTAYNQKFKGKAILTADKSSSTAYMELRSLTSEDSAVYYCTRWITTVVATLYYFDYWGQGTTLTVSS VL: DIVMTQSQKFMSTSVGDRVSITCKASQNVRTAVAWYQQKPGQSPKALIYLASNRHTGVPDRFTGSGSGTDFTLTISNVQSEDLADYFCLQHWNYPLTFGAGTKLELKR | 0.228 | 0.224
16 | C121 (antibody, human IgG1, kappa, V domains shown) VH: EVQLQQSGPEVVKPGASVKISCKASGNTFTDYFINWVKQSHGKSLEWIGDINPDNGGTNYNQKFKGKATLTVDKSSGTAFMGLRSLTSEDSAVYYCATLYFDYWGQGTSLTVSS VL: DIVMTQSPSSLSVSAGEKVTMSCKSSQSLLNSGNQKNYLAWYQQKPGQPPKLLIYGASTRESGVPDRFTGSGSGTDFTLTISSVQAEDLAVYYCQNAHSSPYTFGGGTRLEIKR | 0.037 | 0.055
17 | C122 (antibody, human IgG1, kappa, V domains shown) VH: EVQLQQSGPEVVKPGASVKISCKASGNTFTDYFINWVKQRHGKSLEWIGDVNPDNGGTNYNQKFKGKATLTVDKSSGTAFMGLRSLTSEDSAVYYCATLFFDSWGQGTTLTVSS VL: DIVMTQSPSSLNVSAGEKVTMSCKSSQSLLNSGNQKNYLAWYQQKPGQPPKLLIYGASTRESGVPDRFTGSGSGTDFTLTISSVQAEDLALYYCQNAHSSPYTFGGGTKLEIKR | 0.03 | 0.031
18 | C9 (antibody, human IgG1, kappa, V domains shown) VH: EVQLQQSGAELVKPGASVKLSCTASGFNIKDIYMHWLKQRPEQGLEWIGRIDPTNGNSEYDPRFRGKATLTADTSSNIAYLQLSSLTSEDTAVYYCARFGIYPYFDYWGQGTTLTVSS VL: GIVMTQTPKFLLVSAGDRVTITCKASQSVNKAVVWYQQKPGQSPKLLISYASNRYTGVPDRFTGSGYGTDFTFSISTVQAEDLAVYFCQQDYSSPWTFGGGTKLEIKR | 0.052 | 0.07
19 | C38 (antibody, human IgG1, kappa, V domains shown) VH: QVQLQQSGAELMKPGASVKLSCKATGYTFTGYWIEWVKQRPGHGLEWIGEILPESGRTNYNEKFKGKATFTADTSSNTAYMQLSSLTTEDSAIYYCASLLFFDYWGQGTTLTVSS VL: not shown | 0.064 | –
20 | C61 (antibody, human IgG1, kappa, V domains shown) VH: DVQLQESGPGLVKPSQSLSLTCSVTGYSITSNYYWNWIRQFPGNNLEWMGYISSDGTNNYNPSLRNRISITRDTSKNQFFLKLNSVTTEDTATYYCARGLRYGPWGQGTTLTVSS VL: QLILTQSSSASFSLGASAKLTCTLSSQHSTYTIEWYQQQPLKAPKYVMEVKNDGSHRTGDGIPDRFSGSSSGADRYLSISNIQPEDEAIYICGVGDINNYIFGGGTKVTVLR | 0.089 | –
21 | C33 (antibody, human IgG1, kappa, V domains shown) VH: QVQLQQSGPELVKPGASVKISCKASGYTFTDYYINWVKQRPGQGLEWIGWIFPGSGSTYYNEKFKGKATPTVDKYSSTAYMLLSSLTSEDSAVYFCAREDYFDRGDCWGQGTSVTVSS VL: QIVLTQSPAIMSASPGEKVTMTCSASSSINYMHWYQQKPGTSPKRWIYDTSKLASGVPARFSGSGSGTSYSLTISSMEAEDAATYYCHQRSSYPFTFGSGTKLEIKR | 1.3 | –

Source: patent EP4644419A1 (Hangzhou Zhongmeihuadong Pharmaceutical Co., Ltd., dated 2025)
